Assay results from PMC4108388, “The Structure of RdDddP from Roseobacter denitrificans Reveals That DMSP Lyases in the DddP-Family Are Metalloenzymes” (PLoS ONE, 2014).

Target: the molecule itself
Assay: crystal structure; RdDddP crystallised in 4-4.5 M sodium chloride, 0.1 M Bis-Tris pH 6.5; space group P6(3)22, one molecule per asymmetric unit, dimer formed with a chain related by crystallographic symmetry; 2.15 Å native dataset

B1: putative DddP DMSP lyase from Roseobacter denitrificans Och 114 (enzyme, UniProt Q166H0 1-447, looked up)
chain: MNRHFNATRKIDPSRGATLGDGSPNDMNRVEIGPTQLAFAEWHTARLDLPDLAAMRRFRHRRLTDHVVARGYAGLLMFDPLNIRYATDSTNMQLWNTHNPFRATLLCADGYMVMWDYKNSPFLSEFNPLVREQRAGADLFYFDRGDKVDVAADVFANEVRILLRDHAPGLRRLAVDKVMLHGLRALQAQGFEIMDGEEVTEKARSVKGPDEIRAMRCASHACEVAVRKMEDFARSKVGDGVTCENDIWAILHSENVRRGGEWIETRLLASGPRSNPWFQECGPRVCQRNEIISFDTDLVGAYGICTDISRSWWIGDQKPRADMIYAMQHGVEHIRTNMEMLKPGVMIPELSANTHVLDAKFQKQKYGCLMHGVGLCDEWPLVAYPDHAVAGAYDYPLEPGMTLCVEALISEEGGDFSIKLEDQVLITEDGYENLTKYPFDPALMGVE
notes: putative DMSP lyase DddP (RdDddP), Roseobacter denitrificans Och 114, YP_682809; 453 residues, 51 kDa; the gene was amplified with printed primers that run from the ATG start codon to the stop codon; residues 10-444 are described in the structure; Homodimer formed by crystallographic symmetry; A few vector residues probably remain at the N-terminus after thrombin cleavage (NheI cloning in pET28); …
In the case of B1, the “stoichiometry N” value is reported as 2.
